Assays:
[1] = biological target: T1, Solute carrier organic anion transporter family member 1A2 (Homo sapiens, UniProt P46721); assay: (§1) Cellular uptake in HEK293 cells assessed as human OATP1A2-mediated drug uptake at 0.05 uM after 1 min by Eadie-Hofstee plot analysis; type: ADME, cell-based; details: hek293, 1 min, 0.05 µM
T1 sequence (P46721 whole entry): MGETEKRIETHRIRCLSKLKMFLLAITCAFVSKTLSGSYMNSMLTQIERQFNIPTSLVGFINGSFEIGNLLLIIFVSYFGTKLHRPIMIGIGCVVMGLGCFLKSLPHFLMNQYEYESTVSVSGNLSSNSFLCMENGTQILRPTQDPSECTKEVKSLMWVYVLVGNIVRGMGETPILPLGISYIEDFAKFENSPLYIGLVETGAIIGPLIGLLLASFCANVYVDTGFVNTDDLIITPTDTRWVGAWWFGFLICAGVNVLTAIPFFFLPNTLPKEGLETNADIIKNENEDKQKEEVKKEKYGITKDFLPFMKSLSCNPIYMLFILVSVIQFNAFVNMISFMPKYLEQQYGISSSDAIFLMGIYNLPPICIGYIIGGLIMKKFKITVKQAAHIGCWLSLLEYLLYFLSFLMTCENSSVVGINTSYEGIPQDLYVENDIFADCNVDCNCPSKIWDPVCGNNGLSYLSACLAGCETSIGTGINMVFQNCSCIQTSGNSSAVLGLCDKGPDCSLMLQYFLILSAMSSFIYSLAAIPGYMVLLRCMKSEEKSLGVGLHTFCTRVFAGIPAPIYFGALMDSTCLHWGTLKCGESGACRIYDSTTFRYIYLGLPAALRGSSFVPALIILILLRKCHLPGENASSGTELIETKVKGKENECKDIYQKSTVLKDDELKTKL

OATP1A2 [2] = biological target: T2, OATP1A2 (Homo sapiens, UniProt P46721); assay: as §1; type: ADME, cell-based; details: HEK293 cells expressing human OATP1A2
T2 sequence (P46721 whole entry): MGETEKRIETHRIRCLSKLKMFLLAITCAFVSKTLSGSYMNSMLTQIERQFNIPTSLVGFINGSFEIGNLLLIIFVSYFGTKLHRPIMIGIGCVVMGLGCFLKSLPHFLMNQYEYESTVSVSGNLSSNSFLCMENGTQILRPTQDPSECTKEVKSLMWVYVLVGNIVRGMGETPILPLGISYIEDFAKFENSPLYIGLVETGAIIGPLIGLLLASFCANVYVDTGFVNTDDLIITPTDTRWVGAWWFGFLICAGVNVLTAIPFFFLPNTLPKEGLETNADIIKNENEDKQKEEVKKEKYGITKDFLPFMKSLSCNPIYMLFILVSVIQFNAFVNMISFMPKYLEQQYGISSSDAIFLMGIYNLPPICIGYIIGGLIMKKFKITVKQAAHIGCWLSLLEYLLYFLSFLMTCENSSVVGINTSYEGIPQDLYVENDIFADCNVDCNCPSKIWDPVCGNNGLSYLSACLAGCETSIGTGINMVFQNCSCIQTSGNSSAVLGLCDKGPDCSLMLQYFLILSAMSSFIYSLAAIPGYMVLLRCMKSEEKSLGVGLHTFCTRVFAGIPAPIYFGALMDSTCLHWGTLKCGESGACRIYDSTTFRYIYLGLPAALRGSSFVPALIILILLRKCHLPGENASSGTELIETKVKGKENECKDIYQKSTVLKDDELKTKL

OATP1A2 [3] = biological target: T2, OATP1A2; assay: Cellular uptake in Xenopus oocytes cells assessed as OATP1A2 (unknown origin)-mediated drug uptake; type: ADME, cell-based, Oocyte; details: Xenopus oocytes expressing OATP1A2
[4] = substrate: C[C@]12CC[C@@H]3c4ccc(OS(=O)(=O)O)cc4CC[C@H]3[C@@H]1CCC2=O; assay: Cellular uptake in HEK293 cells assessed as bovine high affinity site of OATP1A2-mediated drug uptake at 0.01 to 50 uM after 1 min by Eadie-Hofstee plot analysis; type: ADME, cell-based, Bos taurus
[5] = substrate: C[C@]12CC[C@@H]3c4ccc(OS(=O)(=O)O)cc4CC[C@H]3[C@@H]1CCC2=O; assay: Cellular uptake in HEK293 cells assessed as bovine low affinity site of OATP1A2-mediated drug uptake at 0.01 to 50 uM after 1 min by Eadie-Hofstee plot analysis; type: ADME, cell-based, Bos taurus

In the case of C[C@]12CC[C@@H]3c4ccc(OS(=O)(=O)O)cc4CC[C@H]3[C@@H]1CCC2=O [ESTRONE SULFURIC ACID], the Vmax [1] is reported as 39.4 pmol/mg/min, the Km at 1 min (OATP1A2 [2]) is reported as 16.1 µM and the Km (OATP1A2 [3]) is reported as 9.6 µM.

B1: Solute carrier organic anion transporter family member (Bos taurus) (protein)
chain: MGETEERIETHRIRCLSKLKMFLLAITCAFVSKTLSGSYMNSMITQIERQFNIPTSLVGFINGSFEIGNLLLIIFVSYFGTKLHRPIMIGVGCVVMGLGCFLQSLPHFLMGRYEYESTVSVSGNLSSNSFLCMENGTQIFKPTKDPSECVKEVKSLMWVYVLVGNIIRGIGETPIMPLGISYIEDFAKFENSPLYIGLIKTGGIIGPLIGLSLASFCANVYVDTESVNTDDLTITPSDTRWVGAWWIGFLICAGVNVLTAIPFFFLPKTLPKEGLEENAEIIKNDKEKQEDIKKKRDAITKDFLPFMKSLLCNPIYMLFILISVLQFNAFVSMVSFMPKYMEQHYGKSASEAIFLLGIYNFPPICIGYIVGGLFMKKFKITAVQAAHIGCWLSFTEYLLHFLCFFMICDSSSVAGLTTSYEGIHQNLRVKNFLADCNMDCNCPTKVWDPVCGNNGLSYTSACLAGCEISSGTGRKMVFQNCSCIQTPGNSSAVLGLCDKGKDCSMMLQYFLILSVFSSFIFSLSAIPGYMVLLRCVKPEEKSLGVGLHAFCTRVLAGIPAPIYFGALVDSTCLHWGTLKCGESGACRIYDSNSFRYIYLGIPAALRGSSYIPAFLILFILRKYRLPGENASSETMLVAKFTGKENEGKEMDQNAKVLNDDELKTKL
With B1 the Km [4] was 0.25 µM, the Vmax [4] was 2.45e-05 µmol/min/mg and the Km [5] was 46.6 µM. The Vmax [5] was 0.000375 µmol/min/mg.
